This is an account of results in article PMC6925060 (Archives of toxicology, 2017).

The target in data set [1] is F-actin (rat, endogenous, 100,000 x g pellet) (rat (endogenous in RMC)) (UniProt P60711). Description: co-sedimentation.
For data set [2], the target named is human GST-cofilin (human) (UniProt P23528). Briefly: pull-down.
Data set [3] concerns the molecule itself. Description: cross-linking.
Data set [4] deals with the molecule itself. Description: cross-linking. The source holds these as a separate data set.

human GST-cofilin (human), sequence (P23528 whole entry): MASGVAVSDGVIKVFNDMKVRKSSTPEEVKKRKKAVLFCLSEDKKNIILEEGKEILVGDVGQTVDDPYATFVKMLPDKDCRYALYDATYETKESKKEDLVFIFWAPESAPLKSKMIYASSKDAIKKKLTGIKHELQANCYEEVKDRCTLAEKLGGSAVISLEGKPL

With “disulfide-crosslinked CAP1 dimer (rat, endogenous, from Cd2+-treated cells) (from UniProt Q08163 1-474) (complex)”, the dimer:monomer ratio in the pellet, percent of that in the supernatant in data set [1] turned out to be 172%.

B1: disulfide-crosslinked CAP1 dimer (rat, endogenous, from Cd2+-treated cells) (complex)
chain: MADMQNLVERLERAVGRLEAVSHTSDMHCGYGDSPSKGAVPYVQAFDSLLANPVAEYLKMSKEIGGDVQKHAEMVHTGLKLERALLVTASQCQQPAGNKLSDLLAPISEQIQEVITFREKNRGSKFFNHLSAVSESIQALGWVALAAKPGPFVKEMNDAAMFYTNRVLKEYRDVDKKHVDWVRAYLSIWTELQAYIKEFHTTGLAWSKTGPVAKELSGLPSGPSVGSGPPPPPPGPPPPPVPTSSGSDDSASRSALFAQINQGESITHALKHVSDDMKTHKNPALKAQSGPVRSGPKPFSAPKPQTSPSPKPATKKEPALLELEGKKWRVENQENVSNLVIDDTELKQVAYIYKCVNTTLQIKGKINSITVDNCKKLGLVFDDVVGIVEIINSRDVKVQVMGKVPTISINKTDGCHAYLSKNSLDCEIVSAKSSEMNVLIPTEGGDFNEFPVPEQFKTLWNGQKLVTTVTEIAG
modifications: intermolecular disulfide crosslink, DTT-sensitive; involves Cys29 (shown by mutagenesis of mouse CAP1)
Take B1: the dimer:monomer ratio in the pull-down, percent of that in the total lysate in data set [2] is 220%.

B2: adenylyl cyclase-associated protein CAP1 (rat, endogenous, monomer) (natural protein, rat (endogenous in RMC), UniProt Q08163 1-474, looked up)
chain: MADMQNLVERLERAVGRLEAVSHTSDMHCGYGDSPSKGAVPYVQAFDSLLANPVAEYLKMSKEIGGDVQKHAEMVHTGLKLERALLVTASQCQQPAGNKLSDLLAPISEQIQEVITFREKNRGSKFFNHLSAVSESIQALGWVALAAKPGPFVKEMNDAAMFYTNRVLKEYRDVDKKHVDWVRAYLSIWTELQAYIKEFHTTGLAWSKTGPVAKELSGLPSGPSVGSGPPPPPPGPPPPPVPTSSGSDDSASRSALFAQINQGESITHALKHVSDDMKTHKNPALKAQSGPVRSGPKPFSAPKPQTSPSPKPATKKEPALLELEGKKWRVENQENVSNLVIDDTELKQVAYIYKCVNTTLQIKGKINSITVDNCKKLGLVFDDVVGIVEIINSRDVKVQVMGKVPTISINKTDGCHAYLSKNSLDCEIVSAKSSEMNVLIPTEGGDFNEFPVPEQFKTLWNGQKLVTTVTEIAG
Broadly, the stoichiometry N is a count of units in the complex or per binding partner. Regarding B2, the “stoichiometry N” value in “cross-linking [3]” came out at 2.

B3: His-tagged recombinant mouse CAP1 (wild type), from HEK cells (natural protein, UniProt P40124 1-474, looked up)
chain: MADMQNLVERLERAVGRLEAVSHTSDMHCGYGDSPSKGAVPYVQAFDSLLANPVAEYLKMSKEIGGDVQKHAEMVHTGLKLERALLATASQCQQPAGNKLSDLLAPISEQIQEVITFREKNRGSKFFNHLSAVSESIQALGWVALAAKPGPFVKEMNDAAMFYTNRVLKEYRDVDKKHVDWVRAYLSIWTELQAYIKEFHTTGLAWSKTGPVAKELSGLPSGPSVGSGPPPPPPGPPPPPISTSSGSDDSASRSALFAQINQGESITHALKHVSDDMKTHKNPALKAQSGPVRSGPKPFSAPKPQTSPSPKPATKKEPALLELEGKKWRVENQENVSNLVIDDTELKQVAYIYKCVNTTLQIKGKINSITVDNCKKLGLVFDDVVGIVEIINSRDVKVQVMGKVPTISINKTDGCHAYLSKNSLDCEIVSAKSSEMNVLIPTEGGDFNEFPVPEQFKTLWNGQKLVTTVTEIAG
As for B3, in the data set “cross-linking [4]”, the binding result is reported as “binds”.
